These results are taken from PMC2867295 (The Journal of Cell Biology, 2010).

The target of the assay is mouse calmodulin, bacterially expressed and biotinylated (mouse, UniProt P0DP26 1-149, biotinylated (EZ-link Sulfo-NHS-LC-Biotinylation kit)). The experiment in a line: far-Western, overlay or dot blot.

B1: Pcdp1-2, fragment aa 447–530 of mouse Pcdp1 with the uncharacterized predicted CaM-binding motif (domain or fragment)
chain: PLVNNVWLTRHRAQRRFQQAARKIMLERRLLSMLGAIRGMDKESILRKIIQVNGKLIQGENPSRGRRAHLKQEDNIWRYSLESE
B1: the binding result is “binds”.
